This note sets out measurements from article PMC6532764.

Where two headings read alike, the source gives them in different places.

The target of series [1] is T1, CspC (C-terminal His-tagged) (Staphylococcus aureus Newman, UniProt O33592 1-66). Nature of the series: EMSA. For orientation: In EMSA bound probe runs differently from free probe, usually more slowly.
The target in series [2] is T1, CspC (C-terminal His-tagged). In words: EMSA. The source holds these as a separate data set.

B1: ssDNA3 (ssDNA)
DNA: AAGTGTATAATGAAAG
On to B1, for which, in series [1], the binding result was “no binding”.

B2: ssDNA1 (ssDNA)
DNA: GTCGACTTTTTTTTTTTTTTTTTTTT
Turning to B2, the binding result in series [2] is listed as “binds”.
